Test results: patent publication US20110293610A1 (published 2011)

target: T1, biotinylated B Lymphocyte Stimulator, soluble form (human, UniProt Q9Y275 134-285, biotinylated with NHS-biotin, molar ratio 20:1 biotin:protein); experiment: phage scFv, receptor binding inhibition on IM9 cells
T1 construct: also called bio-B Lymphocyte Stimulator; free B Lymphocyte Stimulator
Procedure: Fifty-five μl of each appropriate phage supernatant was added to each well and the final volume in each well was 65 μl. Plates were then incubated at room temperature for 30 minutes.
Plates were washed three times in PBST and three times in PBS, tapped dry and 50 μl of streptavidin-Delfia (Wallac) was added to each well at 1:1000 dilution in the Manufacturer's assay buffer. The plates were then incubated at room temperature for 1 hour and washed six times in Delfia wash solution (Wallac). After tapping the plates dry, 100 μl per well of Delfia enhancement solution (Wallac) was added. The plates were gently tapped to encourage micelle formation, incubated at room temperature for 10 minutes, and fluorescence read on a Wallac 1420 workstation at […].

| Binder | binding result |
| --- | --- |
| I007B03 (scFv) scFv: GVQLQQSGAEVKKPGSSVKVSCKASGGTFNTSGITWVRQAPGQGLEWMGWMNPNTGDTAYAQEFQGRVIMTRDTSISTAYMELSSLRSEDTAVYYCARDGSYDILTGYYIDNYMDVWGQGTMVTVSSGGGGSGGGGSGGGGSQSVLTQPASVSGSPGQSITISCTGTSSDVGGYNYVSWYQQHPGKAPKLMIYEGSKRPSGVSNRFSGSKSGNTASLTISGLQAEDEADYYCSSYTTRSTRVFGGGTKLTVLG | binds |
| I017D10 (scFv) scFv: RVQLVQSGAEVKKPGASVKVSCKASGYTFTSDHISWVRQAPGQGLEWMGWISPHHGKTNYAQKLQGRVTMTTDTSTSTAYMELRSLRSDDTAVYYCARVQMDSEYYDLLTGINVGPYYFDYWGKGTLVTVSSGGGGSGGGGSGGGGSSELTQDPAVSVALGQTVRITCQGDSLRSYYASWYQQKPGQAPVLVIYGKNNRPSGIPDRFSGSSSGNTASLTITGAQAEDEADYYCNSRDSSGNHVVFGGGTKLTVLG | binds |
| I006D07 (scFv) scFv: EVQLVESGGGVVQPGGSLRLSCAASGFTVNSYAMHWVRQAPGKGLQWVAVIPYDGSKKYYADSVKGRFTVSRDNSKNTLYLQMNSLRAEDTAVYYCARSHYDILTGLNYWYFDLWGRGTLVTVSSGGGGSGGGGSGGGGSSELTQDPAVSVALGQTVRITCQGDSLRSYYASWYQQKPGQAPVLVIYGKNNRPSGIPDRFSGSSSGNTASLTITGAQAEDEADYYCNSRGSSGNHVVFGGGTKLTVLG | binds |
| I016F04 (scFv) scFv: QVQLQQSGSELKKPGASVKVSCKVSGYSLTKMSMHWVRQSPGEGLEWVGGIDPETRQPVYAQKFQGRVTITKDTSASAAYMELSSLGSEDTALYYCARATYDPLTGYSFDGFDIWGQGTLVTVSSGGGGSGGGGSGGGGSQSVLTQPASVSGSPGQSITISCTGTSSDVGGYNYVSWYQQHPGKAPKLMIYEGSKRPSGVSNRFSGSKSGNTASLTISGLQAEDEADYYCSSYTTRSTRVFGGGTKLTVLG | binds |
| I031F09 (scFv) scFv: QVQLVQSGAEVKKPGASVKVSCTVSGDSFSRHGISWVRQAPGQGLEWMGWISVYNGDTKYAQKVQGRVTMTTDTSTNTVYMELRRLRSDDTAVYYCARDEGRDLLTGYYWPNFFDSWGRGTLVTVSSGGGGSGGGGSGGGGSALSYVLTQPPSASGTPGQRVTISCSGSRPNIGGNTVNWYQQLPGAAPKLLIYSNSQRPSGVPDRFSGSKYGTSASLAISGLQSDDEADYYCAAWDDSLTGPVFGGGTKLTVLG | binds |
| I016E05 (scFv) scFv: QVQLQQSGAEVKKPGASVKVSCKASGYTFTKYTMHWVRQAPGQGPEWMGWINGGSGDTKYSRKFQGRVTITKDTSASAAYMELSSLGSEDTALYYCARATYDPLTGYSFDGFDIWGKGTMVTVSSGGGGSGGGGSGGGGSQSALTQPASVSGSPGQSITISCTGTSSDVGGYNYVSWYQQHPGKAPKLMIYEGSKRPSGVSNRFSGSKSGNTASLTISGLQAEDEADYYCSSYTTRSTRVFGGGTKLTVLG | binds |

Further lines, results first:

| binding result | Binder |
| --- | --- |
| binds | I031G11 (scFv) scFv: QVQLVQSGAEVKKPGASVKVSCTVSGDSFSRHGISWVRQAPGQGLEWMGWISVYNGDTKYAQKVQGRVTMTTDTSTNTVYMELRRLRSDDTAVYYCARDEGRDLLTGYYWPNFFDSWGRGTLVTVSSGGGGSGGGGSGGGGSALSYVLTQPPSVSGTPGQKVTISCSGSRPNIGGNTVNWYQQLPGAAPKLLIYSNSQRPSGVPDRFSGSKYGTSASLAISGLQSDDEADYYCAAWDDSLTGPVFGGGTKLTVLG |
| binds | I008B01 (scFv) scFv: QVQLVQSGAEVMKPGASVKVSCKASGYNFNNYAMQWVRQAPGQRLEWMGWIVPGNGKTKYSQKFQDRVTIARDTSASTVYMELSSLTSEDTAMYYCARATYDPLTGYSFDGFDIWGQGTTVTVSSGGGGSGGGGSGGGGSQSVLTQPASVSGSPGQSITISCTGTSSDVGGYNYVSWYQQHPGKAPKLMIYEGSKRPSGVSNRFSGSKSGNTASLTISGLQAEDEADYYCSSYTTRSTRVFGGGTKLTVLG |
| binds | I018H08 (scFv, also called 1018H08) scFv: QVQLQQSGAEVKKPGASVNVSCKASGYTFTKYTMHWVRQAPGQGPEWMGWINGGSGDTKYSRKFQGRVTITKDTSASAAYMELSSLGSEDTALYYCARATYDPLTGYSFDGFDIWGQGTMVTVSSGGGGSGGGGSGGGGSQSVLTQPASVSGSPGQSITISCTGTSSDVGGYNYVSWYQQHPGKAPKLMIYEGSKRPSGVSNRFSGSKSGNTASLTISGLQAEDEADYYCSSYTTRSTRVFGGGTKLTILG |
| binds | I018H09 (scFv) scFv: QVQLQQSGAEVKKPGASVKVSCKASGYTFTKYTMHWVRQAPGQGPEWMGWINGGSGDTKYSRKFQGRVTITKDTSASATYMELSSLGSEDTALYYCARATYDPLTGYSFDGFDIWGKGTMVTVSSGGGGSGGGGSGGGGSQSVLTQPASVSGSPGQSITISCTGTSSDVGGYNYVSWYQQHPGKAPKLMIYEGSKRPSGVSNRFSGSKSGNTASLTISGLQAEDEADYYCSSYTTRSTRVFGGGTKLTVLG |
| binds | I031F02 (scFv) scFv: QVQLVQSGAEVRKPGSSVKVSCKASGGSFSSHVFSWVRQAPGQGLEWVGGITPKFATPNYAQKFQHRVTITADELTRTVFMDLSGLRSEDTAVYYCARGYDSSAFRAFDIWGQGTMVTVSSGGGGSGGGGSGGGGSAQSVLTQPPSVSGAPGQRVTISCTGSSSNIGAGYDVQWYQQLPGTAPKLLIHGNNNRPSGVPDRFSGSKSGTSASLAITGLQDEDEADYYCQSYDSSLSFSGYVFGTGTKVTVLG |
| binds | I008A09 (scFv) scFv: GVQLVQSGGGVVQPGGSLRLSCAASGFTFSSYGMHWVRQAPGKGLEWVAVISYDGSNKYYADSVKGRFTISRDNSKNTLYLQMNSLRAEDTAVYYCARDREAYYDILTGYYLYYYYMDVWGRGTTVTVSSGGGGSGGGGSGGGGSQSVLTQPASVSGSPGQSITISCTGTSSDVGGYNYVSWYQQHPGKAPKLMIYEGSKRPSGVSNRFSGSKSGNTASLTISGLQAEDEADYYCSSYTTGSTRVFGGGTKLTVLG |
| binds | I026E03 (scFv) scFv: EVQLVQSGGEVKRPGASVKVSCKASGYTFSRYGISWVRQAPGQGLEWMGWISAYNGKTSFAEKFQGRVTLTTDTSTTTVDMELRNLRSDDTAVYYCARTDYDILTGYPMGYFDPWGKGTLVTVSSGGGGSGGGGSGGGGSALSSELTQDPAVSVALGQTVKITCQGDSLRSFYAAWYQQKPGQAPILVISGKNNRPSGIPDRFSGSSSGNTASLTITGAQAEDEADYYCNSRDTSGNHYVFGAGTKLTVLG |
| binds | I006D08 (scFv) scFv: QVQLQQSGAEVKKPGSSVRVSCKASGGTFNNNAINWVRQAPGQGLEWMGGIIPMFGTAKYSQNFQGRVAITADESTSTASMELSSLRSEDTAVYYCARSRDLLLFPHYGMDVWGRGTMVTVSSGGGGSGGGGSGGGGSAFSSELTQDPAVSVALGQTVRVTCQGDSLRSYYASWYQQKPGQAPVLVIYGKNNRPSGIPDRFSGSSSGNTASLTITGAQAEDEADYYCNSRDSSGNHWVFGGGTELTVLG |
